The target of data set [1] is T1, HMCES SRAP domain (SRAPd) WT (Homo sapiens, UniProt Q96FZ2 2-270).
T1 sequence: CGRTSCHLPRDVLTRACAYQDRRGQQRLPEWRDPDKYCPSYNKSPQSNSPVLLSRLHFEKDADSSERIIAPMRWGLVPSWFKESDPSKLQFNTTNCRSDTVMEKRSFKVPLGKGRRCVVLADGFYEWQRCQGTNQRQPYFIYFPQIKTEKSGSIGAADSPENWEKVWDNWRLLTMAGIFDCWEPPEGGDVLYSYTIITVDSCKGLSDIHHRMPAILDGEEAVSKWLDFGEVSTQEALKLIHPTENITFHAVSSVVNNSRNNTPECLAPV
Nature of the data set: fluorescence polarization. On the technique in general: In fluorescence polarisation assays a small probe gives low polarisation when free and higher when bound to something large.

In data set [2] the target is T1, HMCES SRAP domain (SRAPd) WT. Nature of the data set: crystal structure.
Data set [3] has the same target. Kind of data set: crystal structure. This is another data set of the same source.

Read-outs that look alike come from different tables or passages of the source.

B1: 3-nt gap DNA (dsDNA)
DNA 1: TCTTCTGGTCCGGATGGTAGTTAAGTGTTGAC
DNA 2: GGACCAGAAGA
DNA 3: GTCAACACTTAACTACCA
B1: the binding signal in data set [1] was ~7 fold higher affinity than dsDNA of same sequence.

B2: DNA_3nt (3' overhang) (dsDNA)
DNA 1: CCAGACGTT
DNA 2: GTCTTG
For B2, the binding result in data set [2] was “binds”.

B3: DNA_6nt (3' overhang) (dsDNA)
DNA 1: CCAGACGTTGTT
DNA 2: GTCTTG
As for B3, the binding result in data set [3] is given as “binds”.
